# Measurements from patent publication US10738294B2, “Tissue factor (TF)—targeted nanotherapy” (Northwestern University, priority 2016, dated 2020).
# No end group written: not given here. *: point of attachment. Dodecyl = CCCCCCCCCCCC*
# T1: Rat recombinant TF (Rattus norvegicus, UniProt P42533)
# T1 construct: purchased Cloud Clone Corp
# T1 sequence (P42533 29-295): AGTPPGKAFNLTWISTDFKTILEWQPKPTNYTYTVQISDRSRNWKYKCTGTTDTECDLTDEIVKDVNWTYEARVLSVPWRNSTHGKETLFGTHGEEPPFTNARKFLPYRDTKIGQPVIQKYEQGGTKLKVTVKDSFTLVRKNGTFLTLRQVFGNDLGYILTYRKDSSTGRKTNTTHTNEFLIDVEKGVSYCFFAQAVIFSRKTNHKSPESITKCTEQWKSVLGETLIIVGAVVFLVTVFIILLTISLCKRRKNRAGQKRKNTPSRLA
# Legend:
# Rat recombinant TF = biological target: T1, Rat recombinant TF; experiment: Plate-based in vitro binding assay of TF-targeting peptides to recombinant TF; settings: for absorbance (binding to recombinant TF): 450 nm, coated peptides incubated with 75 ng recombinant TF; for dose response of absorbance with recombinant TF: peptide-coated plates, increasing concentrations of recombinant TF
# Method: A plate-based binding assay for the TF-targeting peptides was performed as follows. Peptides were dissolved in water at a concentration of 60 μM and coated onto BD Falcon OptiLux 96-well plates (BD Biosciences, Franklin Lakes, N.J.) by incubating them at 37° C. for 2 hours, then at 4° C. overnight. Next, wells were blocked using Superblock phosphate buffered saline (PBS) blocking buffer (200 μL per well, Thermo Scientific, Waltham, Mass.) for 2 hours at room temperature, then washed two times with water. Rat recombinant TF (Cloud Clone Corp, Houston, Tex.) was added in amounts of 12.5-75.0 ng, dissolved in PBS for a total volume of 50 μL/well and incubated at room temperature for 4 hours. Plates were rinsed with water twice, then blocked with Superblock PBS blocking buffer for 30 minutes at room temperature. Colorimetric immunodetection was then performed by incubating wells with anti-TF antibody (Cat. #: ab104513, rabbit polyclonal, Abcam, Cambridge, Mass.) dissolved in Superblock PBS blocking buffer (1:5000) at 4° C. overnight. Wells were washed in water 4 times, and then incubated with a secondary goat-anti-rabbit antibody (Thermo scientific, Rockford, Ill.) conjugated to horseradish peroxidase and dissolved 1:5000 in Superblock PBS blocking buffer for 2 hours at room temperature. Wells were then rinsed 4 times in water, developed using TMB developing solution (TMB Substrate, Thermo Scientific, Waltham, Mass.) for 15 minutes, then stopped with 0.18 M H2SO4 (Sigma Aldrich, St. Louis, Mo.). Plates were immediately read using an Epoch plate reader (BioTek, Winooski, Vt.) at 450 nm. Wells were coated in triplicate, and the assay was performed three times. Treatment groups were each peptide as stated above. Negative controls were wells coated with blocking buffer rather than peptide, and positive controls were wells coated with rat recombinant TF (Cloud Clone Corp) at 12.5 and 25 ng/well.
# Sprague Dawley rats = experiment: Liver punch hemorrhage model, blood loss; format: in vivo; settings: % total blood volume, rat liver punch model, 30 minutes, 2.5 mg PA by tail vein
# Method: (§1) At the end of 30 minutes, animals were euthanized.
# Blood loss was presented as % total blood volume. […] Data were log transformed for analysis.
# injured liver = experiment: Fluorescent microscopy of nanofiber binding in liver and other organs after liver punch injury; format: in vivo; settings: rat liver punch model, tail vein injection, fluorescently labeled nanofiber
# Method: as §1
# In situ perfusion with 400 mL of a PBS solution was performed, and organs including the kidneys, spleen, lung, uninjured liver, and injured lobe of the liver were collected for tissue processing. Samples were fixed in 2% paraformaldehyde for 2 hours, then 30% sucrose overnight. Samples were then frozen in Tissue-Tek OTC compound (Sakura Finetek, Torrance, Calif.) over liquid nitrogen and stored at −20° C. A LEICA CM 1950 cryostat (LEICA Biosystems, Buffalo Grove, Ill.) was used to cut samples into 10-μm sections, which were stained with 4′,6-diamidino-2-phenylindole (DAPI, Invitrogen, Grand Island, N.Y.), and fixed with ProLong® Gold antifade reagent (Life Technologies, Eugene, Oreg.). […]
# Digital images were acquired using a Zeiss LSM-510 microscope (Hallbergmoos, Germany) with a 20× objective. The HE CY3 filter (Zeiss filter #43) using excitation and emission wavelength 550-575 nm and 605-670 nm, respectively, was used to assess PA fluorescence. […] The green fluorescent protein filter (Zeiss filter #38) using excitation and emission wavelengths of 470-495 nm and 525-550 nm, respectively, was used to assess tissue auto-fluorescence.
absorbance (binding to recombinant TF) (Rat recombinant TF),Molecule,total blood loss (Sprague Dawley rats) [%],fluorescence in injured liver (injured liver),dose response of absorbance with recombinant TF (Rat recombinant TF)
0.19±0.3,EGRNCETHKDDQL,,,
0.29±0.02,RLMTQDCLQQRSK,,,increased absorbance with increasing concentrations of recombinant TF
0.28±0.03,RTLAFVRFK,,,increased absorbance with increasing concentrations of recombinant TF

# The next lines start with the molecule.
Molecule,absorbance (binding to recombinant TF) (Rat recombinant TF),total blood loss (Sprague Dawley rats) [%],fluorescence in injured liver (injured liver),dose response of absorbance with recombinant TF (Rat recombinant TF)
"A2V2K2—C12 (KKAAVVK) [non-specific peptide, non-specific peptide, consisting of the filler peptide, selected as a non-targeted control]",0.2±0.03,,,
KKAAVV(K)-C12 (KKAAVVK(Dodecyl)-NH2; not fully specified; printed as KKAAVV(K)-C12) [non-specific PA nanofiber],,21±2,No fluorescence was observed,
recombinant TF: rat recombinant tissue factor (Cloud Clone Corp) coated on wells as positive control (protein) AGTPPGKAFNLTWISTDFKTILEWQPKPTNYTYTVQISDRSRNWKYKCTGTTDTECDLTDEIVKDVNWTYEARVLSVPWRNSTHGKETLFGTHGEEPPFTNARKFLPYRDTKIGQPVIQKYEQGGTKLKVTVKDSFTLVRKNGTFLTLRQVFGNDLGYILTYRKDSSTGRKTNTTHTNEFLIDVEKGVSYCFFAQAVIFSRKTNHKSPESITKCTEQWKSVLGE,0.32±0.01,,,
